The results in this text go back to patent publication EP0311107A2, “Anti-HIV active 3'-fluoro-purine-2',3'-dideoxyribosides” (priority 1987, dated 1989).

Substrate in series [1]: Nc1nc(N)c2ncn([C@H]3C[C@H](F)[C@@H](CO)O3)c2n1
As to the kind of experiment: Substrate kinetics for deamination by adenosine deaminase. The format is biochemical. Particulars: other: beef intestine adenosine deaminase.

Substrate in series [2]: Nc1nc(N)c2ncn([C@H]3C[C@@H](O)[C@@H](CO)O3)c2n1
Described as above. The format is biochemical. The conditions noted are these: other: beef intestine adenosine deaminase.

B1: beef intestine adenosine deaminase (ADA) (Bos taurus) (protein)
chain: MAQTPAFNKPKVELHVHLDGAIKPETILYYGRKRGIALPADTPEELQNIIGMDKPLSLPEFLAKFDYYMPAIAGCREAVKRIAYEFVEMKAKDGVVYVEVRYSPHLLANSKVEPIPWNQAEGDLTPDEVVSLVNQGLQEGERDFGVKVRSILCCMRHQPSWSSEVVELCKKYREQTVVAIDLAGDETIEGSSLFPGHVKAYAEAVKSGVHRTVHAGEVGSANVVKEAVDTLKTERLGHGYHTLEDATLYNRLRQENMHFEVCPWSSYLTGAWKPDTEHPVVRFKNDQVNYSLNTDDPLIFKSTLDTDYQMTKNEMGFTEEEFKRLNINAAKSSFLPEDEKKELLDLLYKAYGMPSPASAEQCL
notes: Kinetic properties of beef intestine adenosine deaminase for 2,6-diaminopurine 2′,3′-dideoxynucleoside analogues; purchased Boehringer Mannheim, Mannheim, West Germany; host or cells: beef intestine (tissue-derived enzyme)
By Km is commonly meant the substrate concentration at which the rate is half of its maximum. As to B1, the Km in series [1] came out at 148 µM; in series [2], 74 µM. Also, the Vmax in series [1] was determined as 31 µmole/mg protein/min.
